Bridge positions count the residues as written; N and C are the ends. Ends that are not written are not given here. I, II: the chains in the order shown.
T1: Human relaxin receptor on THP-1 cells (human, UniProt Q9HBX9 1-757)
T1 construct: whole, on cells; also called human relaxin receptors
T1 sequence (looked up): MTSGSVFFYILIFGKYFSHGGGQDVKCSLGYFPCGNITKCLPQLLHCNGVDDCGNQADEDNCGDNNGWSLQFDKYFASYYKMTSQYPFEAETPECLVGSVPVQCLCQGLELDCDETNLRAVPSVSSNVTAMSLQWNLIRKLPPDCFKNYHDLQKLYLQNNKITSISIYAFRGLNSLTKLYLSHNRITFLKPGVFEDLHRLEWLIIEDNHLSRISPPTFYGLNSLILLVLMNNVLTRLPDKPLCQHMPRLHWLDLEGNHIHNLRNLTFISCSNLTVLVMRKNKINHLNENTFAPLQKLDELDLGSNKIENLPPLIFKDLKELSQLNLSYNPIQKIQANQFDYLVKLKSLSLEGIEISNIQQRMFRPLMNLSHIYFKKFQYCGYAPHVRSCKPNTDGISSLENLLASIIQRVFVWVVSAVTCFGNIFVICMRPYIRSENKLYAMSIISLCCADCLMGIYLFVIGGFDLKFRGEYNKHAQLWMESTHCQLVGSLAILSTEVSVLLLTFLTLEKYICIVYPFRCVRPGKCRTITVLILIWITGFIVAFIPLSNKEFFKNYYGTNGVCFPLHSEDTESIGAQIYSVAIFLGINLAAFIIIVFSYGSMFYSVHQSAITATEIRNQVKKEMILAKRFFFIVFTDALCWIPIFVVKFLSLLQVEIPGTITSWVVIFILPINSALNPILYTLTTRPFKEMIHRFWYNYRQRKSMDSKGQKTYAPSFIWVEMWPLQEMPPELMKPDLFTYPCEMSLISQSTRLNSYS

B1: Synthetic human H1 relaxin (ligand)
chain 1: RPYVALFEKCCLIGCTKRSLAKYC
chain 2: KWKDDVIKLCGRELVRAQIAICGMSTWS
notes: mature; Synthesized previously (Wade et al 1996); also called human 1 relaxin
B2: Synthetic human H3 relaxin [hRlx-3 A(1-24) amide-B(1-27) amide] (ligand)
chain 1: DVLAGLSSSCCKWGCSKSEISSLC-NH2
chain 2: RAAPYGVRLCGREFIRAVIFTCGGSRW-NH2
modifications: disulfide I:10-I:15, I:11-II:10, I:24-II:22
notes: Made by solid phase synthesis; also called human 3 relaxin; synthetic H3 relaxin C-terminal amide derivative
B3: Recombinant human H2 relaxin (ligand)
chain 1: QLYSALANKCCHVGCTKRSLARFC
chain 2: DSWMEEVIKLCGRELVRAQIAICGMSTWS
modifications: not fully specified (bridges); ends and bridges not checked
notes: mature; Gift from Connetics Corporation; also called human 2 relaxin

What follows are binders tested against T1, Human relaxin receptor on THP-1 cells (assay: competition with 33P-labeled H2 (B33) relaxin (100 pM) for binding to THP-1 cells).
Description: THP-1 Cell Binding Assay—THP-1 cells were spun down and resuspended in binding buffer (20 mM HEPES, 50 mM NaCl, 1.5 mM CaCl₂, 1% BSA, 0.1 mg/ml lysine, 0.01% […], pH 7.5) (Parsell et al (1996) J. Biol. Chem. 271, 27936-27941) to give 2×10⁶ cells/well in a 96-well plate. The cells were incubated in binding buffer with ³³P-labeled H2 (B33) relaxin (100 pM: labeled as previously described (Tan et al (1999) Br. J. Pharmacol. 127, 91-98) at 25° C. for 90 min in the absence or presence of increasing concentrations of unlabeled H1, H2 and H3 relaxin (100 pM to 30 nM). Non-specific binding was defined with H2 relaxin (1 μM. Cells were harvested using a Packard 96-well plate cell harvester and Whatman GF/C glass fibre filters treated with 0.5% polyethylenimine. The filters were washed three times with modified binding buffer (20 mM HEPES, 50 mM NaCl, 1.5 mM CaCl₂), dried in a 37° C. oven, and the radioactivity counted by liquid scintillation spectrometry (TopCount™, Canberra Packard, Australia).

Row | Binder | pKi
1 | B1 | 8.9
2 | B2 | 7.5
3 | B3 | 8.74

The binders below were run against T1, Human relaxin receptor on THP-1 cells (assay: cell-based or functional assay).

Row | Binder | cAMP production in THP-1 cells, EC50 [nM] | cAMP production in THP-1 cells, pEC50
4 | B1 | 0.794 | 9.1
5 | B2 | 2.11 | 8.68
6 | B3 | 0.214 | 9.67
